Measured values published in patent US12466852B2, “Method for extraction and purification of hirudin mutant and use thereof” (SUNGEN BIOSCIENCE CO., LTD., priority 2019, dated 2025).
“Also recorded” adds a separate entry of the source.

Legend:
thrombin = thrombin (Homo sapiens, UniProt P00734); assay: anticoagulant activity by biochemical method determination (Chinese Pharmacopoeia 2005 edition, page 84)
Method: According to the analysis of anticoagulant activity by biochemical method determination, the anticoagulant activity of the prepared hirudin mutant HV2-Lys47 was calculated to be 17000 ATU/mg. For the specific determination of anticoagulant activity, reference may be made to the left column of page 84 of the Chinese Pharmacopoeia (2005 edition). Moreover, the purity of the hirudin mutant HV2-Lys47 calculated according to the proportion of color bands in gel electrophoresis had reached to 95%.

[1] = effects of drying process on the activity of hirudin mutant HV2-Lys47 in anticoagulant blood collection tubes; type: physicochemical; details: for Activity after drying / Activity loss: content 306ATU/tube
Method: Effects of drying process on the activity of hirudin mutant HV2-Lys47 in anticoagulant blood collection tubes were studied.
The hirudin prepared in Example 9 was dissolved in sterile pure water with a dissolution concentration of 3.4 g/100 ml pure water. 2 ml blood collection tubes were used, and each of them was sprayed with the solution of the prepared hirudin mutant HV2-Lys47 by needle spray, and then dried.
The common drying process in the art is high temperature drying: drying three times at 45° C., 50° C. and 70° C., three times for each temperature, and 60 seconds each time.
The drying method in the present application is: drying the sprayed blood collection tubes in a vacuum lyophilizer at a temperature of −50° C. and a vacuum degree of […].
The effects of high temperature drying and vacuum lyophilization methods on the activity of hirudin mutant HV2-Lys47 were as shown in Table 1 below.

blood coagulation = assay: effects of the amount of hirudin mutant HV2-Lys47 in the blood collection tube on blood coagulation; details: for Coagulation: blood collection volume 2
Method: Effects of the amount of the hirudin mutant HV2-Lys47, which was prepared and vacuum-lyophilized in Example 9, on blood coagulation were as shown in Table 2 below:
It can be seen from the above table that anticoagulant effect can be achieved when the amount of the hirudin mutant HV2-Lys47 added in the blood collection tube is 0.005 mg or more.

[2] = drying for 40 min at −50° C. and with a vacuum degree of −4 Mpa
[3] = drying three times at 45° C., 60 seconds each time
[4] = drying three times at 50° C., 60 seconds each time
[5] = drying three times at 70° C., 60 seconds each time

B1: hirudin mutant HV2-Lys47: hirudin mutant of SEQ ID NO.: 1; asparagine at position 47 of natural hirudin substituted by lysine; produced by Escherichia coli fermentation (protein)
chain: ITYTDCTESGQNLCLCEGSNVCGKGNKCILGSNGKGNQCVTGEGTPKPESHNNGDFEEIPEEYLQ
thrombin; prepared in Example 1 (tube centrifuge, ethanol precipitation)
  anticoagulant activity: 17000 ATU/mg
thrombin; prepared in Example 2 (disk centrifuge, 8% salt)
  anticoagulant activity: 15800 ATU/mg
thrombin; prepared in Example 3 (ceramic membrane)
  anticoagulant activity: 16800 ATU/mg
thrombin; prepared in Example 4 (hollow fiber membrane)
  anticoagulant activity: 16000 ATU/mg
thrombin; prepared in Example 5 (methanol precipitation)
  anticoagulant activity: 15800 ATU/mg
thrombin; prepared in Example 6 (acetone precipitation)
  anticoagulant activity: 17000 ATU/mg
thrombin; prepared in Example 7 (ammonium sulfate precipitation)
  anticoagulant activity: 15000 ATU/mg
thrombin; prepared in Example 8 (ceramic membrane, nanofiltration, sodium chloride precipitation)
  anticoagulant activity: 14500 ATU/mg
thrombin; prepared in Example 9 (isopropanol precipitation)
  anticoagulant activity: 18000 ATU/mg
[1]; [2]
  Activity after drying: 304 ATU/tube
  Activity loss: 0.65%
[1]; [3]
  Activity after drying: 276 ATU/tube
  Activity loss: 9.8%
[1]; [4]
  Activity after drying: 245 ATU/tube
  Activity loss: 19.9%
[1]; [5]
  Activity after drying: 160 ATU/tube
  Activity loss: 47.7%
[1]; high-temperature drying process generally used in production of a blood collection tube
  loss of hirudin activity: about 10%
[1]; vacuum lyophilization
  hirudin activity loss (in words): no hirudin activity loss; also recorded: not lost
Blood coagulation; 2 ml blood collection
  amount added in the blood collection tube at which anticoagulant effect can be achieved: ≥ 0.005 mg
Blood coagulation; amount 0.001
  Coagulation: Quick coagulation
Blood coagulation; amount 0.005
  Coagulation: No coagulation
Blood coagulation; amount 0.008
  Coagulation: No coagulation
Blood coagulation; amount 0.02
  Coagulation: No coagulation
Blood coagulation; amount 0.08
  Coagulation: No coagulation
Blood coagulation; amount 0.16
  Coagulation: No coagulation
Blood coagulation; amount 0.5
  Coagulation: No coagulation
Blood coagulation; amount 1
  Coagulation: No coagulation
Blood coagulation; amount 5
  Coagulation: No coagulation
Blood coagulation; amount 10
  Coagulation: No coagulation
Blood coagulation; amount 15
  Coagulation: No coagulation
Blood coagulation; amount 20
  Coagulation: No coagulation
